Source: US20220064329A1 (Novo Nordisk, published 2022)
Positions count from the first letter of the chain named. In names and notes the source's numbering stands.

T1: recombinant human activated Factor VII (FVIIa) (human, UniProt P08709 61-212; P08709 213-466, ten glutamate residues of the Gla domain may be gamma-carboxylated)
T1 construct: chains tethered by a disulfide bond; also called Factor VIIa; rFVIIa
T1 sequence 1: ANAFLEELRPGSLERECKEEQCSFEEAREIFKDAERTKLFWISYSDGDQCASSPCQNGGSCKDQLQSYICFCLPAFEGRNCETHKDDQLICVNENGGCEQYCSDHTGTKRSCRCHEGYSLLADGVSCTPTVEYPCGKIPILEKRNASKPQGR
T1 sequence 2: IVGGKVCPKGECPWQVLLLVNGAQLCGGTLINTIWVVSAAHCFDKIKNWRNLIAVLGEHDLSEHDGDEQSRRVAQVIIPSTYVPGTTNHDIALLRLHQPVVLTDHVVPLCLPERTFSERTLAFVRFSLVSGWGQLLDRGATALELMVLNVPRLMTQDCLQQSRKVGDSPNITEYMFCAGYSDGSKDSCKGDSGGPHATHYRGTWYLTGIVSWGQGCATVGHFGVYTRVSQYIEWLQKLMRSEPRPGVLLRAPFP

B1: VH SEQ ID NO 626 / VL SEQ ID NO 470 (antibody, IgG4, V domains shown)
VH: QVQLQESGPGLVKPSQTLSLTCTVSGYSISSDSAWSWIRQPPGKGLEWIGYIQYSGSTNYNPSLKSRVTISRDTSKNQFSLKLSSVTAADTAVYYCARSVNYYGNSFAVGPWGQGTLVTVSS
VL: EIVLTQSPATLSLSPGERATLSCRASQGVSDYLHWYQQKPGQAPRLLIKYASQPATGIPARFSGSGSGTDFTLTISSLEPEDFAVYYCQNGHSFPLTFGQGTKLEIK
notes: humanized 11F2; IgG4 S228P/kappa
B2: VH SEQ ID NO 514 / VL SEQ ID NO 366 (antibody, IgG4, V domains shown)
VH: B1 VH with K13E, Q16D, T23A, S30T, G45K, I70M, A89L, P111Y
VL: B1 VL with V29L, H34A, Q42E
notes: as for B1
B3: VH SEQ ID NO 514 / VL SEQ ID NO 398 (antibody, IgG4, V domains shown)
VH: B1 VH with K13E, Q16D, T23A, S30T, G45K, I70M, A89L, P111Y
VL: B1 VL with H34A, Q42E, A51T
notes: as for B1
B4: VH SEQ ID NO 314 / VL SEQ ID NO 486 (antibody, IgG4, V domains shown)
VH: B1 VH with K13E, Q16D, T23A, I70M, R72V, A89L
VL: B1 VL with A84G
notes: as for B1
B5: VH SEQ ID NO 314 / VL SEQ ID NO 326 (antibody, IgG4, V domains shown)
VH: B1 VH with K13E, Q16D, T23A, I70M, R72V, A89L
VL: B1 VL with V29I, Q42E, A51T, A84G, Q100A, I106L
notes: as for B1
B6: VH SEQ ID NO 314 / VL SEQ ID NO 350 (antibody, IgG4, V domains shown)
VH: B1 VH with K13E, Q16D, T23A, I70M, R72V, A89L
VL: B1 VL with V29I, A51T, Q100A, I106L
notes: as for B1
B7: VH SEQ ID NO 514 / VL SEQ ID NO 422 (antibody, IgG4, V domains shown)
VH: B1 VH with K13E, Q16D, T23A, S30T, G45K, I70M, A89L, P111Y
VL: B1 VL with H34A, N90Q
notes: as for B1
B8: VH SEQ ID NO 514 / VL SEQ ID NO 334 (antibody, IgG4, V domains shown)
VH: B1 VH with K13E, Q16D, T23A, S30T, G45K, I70M, A89L, P111Y
VL: B1 VL with V29I
notes: as for B1
B9: VH SEQ ID NO 514 / VL SEQ ID NO 478 (antibody, IgG4, V domains shown)
VH: B1 VH with K13E, Q16D, T23A, S30T, G45K, I70M, A89L, P111Y
VL: B1 VL with N90Q
notes: as for B1
B10: VH SEQ ID NO 514 / VL SEQ ID NO 486 (antibody, IgG4, V domains shown)
VH: B1 VH with K13E, Q16D, T23A, S30T, G45K, I70M, A89L, P111Y
VL: B1 VL with A84G
notes: as for B1
B11: VH SEQ ID NO 514 / VL SEQ ID NO 502 (antibody, IgG4, V domains shown)
VH: B1 VH with K13E, Q16D, T23A, S30T, G45K, I70M, A89L, P111Y
VL: B1 VL with A51T
notes: as for B1
B12: VH SEQ ID NO 314 / VL SEQ ID NO 454 (antibody, IgG4, V domains shown)
VH: B1 VH with K13E, Q16D, T23A, I70M, R72V, A89L
VL: B1 VL with Q42E
notes: as for B1
B13: VH SEQ ID NO 514 / VL SEQ ID NO 358 (antibody, IgG4, V domains shown)
VH: B1 VH with K13E, Q16D, T23A, S30T, G45K, I70M, A89L, P111Y
VL: B1 VL with V29I, A51T
notes: as for B1
B14: VH SEQ ID NO 314 / VL SEQ ID NO 478 (antibody, IgG4, V domains shown)
VH: B1 VH with K13E, Q16D, T23A, I70M, R72V, A89L
VL: B1 VL with N90Q
notes: as for B1
B15: VH SEQ ID NO 514 / VL SEQ ID NO 310 (antibody, IgG4, V domains shown)
VH: B1 VH with K13E, Q16D, T23A, S30T, G45K, I70M, A89L, P111Y
VL: B1 VL with V29I, H34A
notes: as for B1
B16: VH SEQ ID NO 522 / VL SEQ ID NO 318 (antibody, IgG4, V domains shown)
VH: B1 VH with K13E
VL: B1 VL with V29I, Q42E, A51T
notes: as for B1
B17: VH SEQ ID NO 514 / VL SEQ ID NO 414 (antibody, IgG4, V domains shown)
VH: B1 VH with K13E, Q16D, T23A, S30T, G45K, I70M, A89L, P111Y
VL: B1 VL with H34A
notes: as for B1
B18: VH SEQ ID NO 514 / VL SEQ ID NO 462 (antibody, IgG4, V domains shown)
VH: B1 VH with K13E, Q16D, T23A, S30T, G45K, I70M, A89L, P111Y
VL: B1 VL with Q100A
notes: as for B1
B19: VH SEQ ID NO 514 / VL SEQ ID NO 446 (antibody, IgG4, V domains shown)
VH: B1 VH with K13E, Q16D, T23A, S30T, G45K, I70M, A89L, P111Y
VL: B1 VL with H34A, A51T
notes: as for B1
B20: VH SEQ ID NO 514 / VL SEQ ID NO 382 (antibody, IgG4, V domains shown)
VH: B1 VH with K13E, Q16D, T23A, S30T, G45K, I70M, A89L, P111Y
VL: B1 VL with V29L, Q42E
notes: as for B1
B21: VH SEQ ID NO 514 / VL SEQ ID NO 438 (antibody, IgG4, V domains shown)
VH: B1 VH with K13E, Q16D, T23A, S30T, G45K, I70M, A89L, P111Y
VL: B1 VL with H34A, F83V
notes: as for B1
B22: VH SEQ ID NO 314 / VL SEQ ID NO 318 (antibody, IgG4, V domains shown)
VH: B1 VH with K13E, Q16D, T23A, I70M, R72V, A89L
VL: B1 VL with V29I, Q42E, A51T
notes: as for B1
B23: VH SEQ ID NO 514 / VL SEQ ID NO 350 (antibody, IgG4, V domains shown)
VH: B1 VH with K13E, Q16D, T23A, S30T, G45K, I70M, A89L, P111Y
VL: B1 VL with V29I, A51T, Q100A, I106L
notes: as for B1
B24: VH SEQ ID NO 314 / VL SEQ ID NO 470 (antibody, IgG4, V domains shown)
VH: B1 VH with K13E, Q16D, T23A, I70M, R72V, A89L
VL: B1 VL
notes: as for B1
B25: VH SEQ ID NO 514 / VL SEQ ID NO 430 (antibody, IgG4, V domains shown)
VH: B1 VH with K13E, Q16D, T23A, S30T, G45K, I70M, A89L, P111Y
VL: B1 VL with H34A, A84G
notes: as for B1
B26: VH SEQ ID NO 522 / VL SEQ ID NO 310 (antibody, IgG4, V domains shown)
VH: B1 VH with K13E
VL: B1 VL with V29I, H34A
notes: as for B1
B27: VH SEQ ID NO 514 / VL SEQ ID NO 390 (antibody, IgG4, V domains shown)
VH: B1 VH with K13E, Q16D, T23A, S30T, G45K, I70M, A89L, P111Y
VL: B1 VL with H34A, Q42E
notes: as for B1
B28: VH SEQ ID NO 314 / VL SEQ ID NO 342 (antibody, IgG4, V domains shown)
VH: B1 VH with K13E, Q16D, T23A, I70M, R72V, A89L
VL: B1 VL with V29I, A51T, T69R, Q100A, I106L
notes: as for B1
B29: VH SEQ ID NO 514 / VL SEQ ID NO 494 (antibody, IgG4, V domains shown)
VH: B1 VH with K13E, Q16D, T23A, S30T, G45K, I70M, A89L, P111Y
VL: B1 VL with F83V
notes: as for B1
B30: VH SEQ ID NO 314 / VL SEQ ID NO 382 (antibody, IgG4, V domains shown)
VH: B1 VH with K13E, Q16D, T23A, I70M, R72V, A89L
VL: B1 VL with V29L, Q42E
notes: as for B1
B31: VH SEQ ID NO 514 / VL SEQ ID NO 470 (antibody, IgG4, V domains shown)
VH: B1 VH with K13E, Q16D, T23A, S30T, G45K, I70M, A89L, P111Y
VL: B1 VL
notes: as for B1
B32: VH SEQ ID NO 314 / VL SEQ ID NO 358 (antibody, IgG4, V domains shown)
VH: B1 VH with K13E, Q16D, T23A, I70M, R72V, A89L
VL: B1 VL with V29I, A51T
notes: as for B1
B33: VH SEQ ID NO 514 / VL SEQ ID NO 454 (antibody, IgG4, V domains shown)
VH: B1 VH with K13E, Q16D, T23A, S30T, G45K, I70M, A89L, P111Y
VL: B1 VL with Q42E
notes: as for B1
B34: VH SEQ ID NO 314 / VL SEQ ID NO 502 (antibody, IgG4, V domains shown)
VH: B1 VH with K13E, Q16D, T23A, I70M, R72V, A89L
VL: B1 VL with A51T
notes: as for B1
B35: VH SEQ ID NO 514 / VL SEQ ID NO 318 (antibody, IgG4, V domains shown)
VH: B1 VH with K13E, Q16D, T23A, S30T, G45K, I70M, A89L, P111Y
VL: B1 VL with V29I, Q42E, A51T
notes: as for B1
B36: VH SEQ ID NO 314 / VL SEQ ID NO 462 (antibody, IgG4, V domains shown)
VH: B1 VH with K13E, Q16D, T23A, I70M, R72V, A89L
VL: B1 VL with Q100A
notes: as for B1
B37: VH SEQ ID NO 314 / VL SEQ ID NO 494 (antibody, IgG4, V domains shown)
VH: B1 VH with K13E, Q16D, T23A, I70M, R72V, A89L
VL: B1 VL with F83V
notes: as for B1
B38: VH SEQ ID NO 514 / VL SEQ ID NO 406 (antibody, IgG4, V domains shown)
VH: B1 VH with K13E, Q16D, T23A, S30T, G45K, I70M, A89L, P111Y
VL: B1 VL with H34A, Q100A
notes: as for B1
B39: VH SEQ ID NO 314 / VL SEQ ID NO 334 (antibody, IgG4, V domains shown)
VH: B1 VH with K13E, Q16D, T23A, I70M, R72V, A89L
VL: B1 VL with V29I
notes: as for B1
B40: VH SEQ ID NO 522 / VL SEQ ID NO 326 (antibody, IgG4, V domains shown)
VH: B1 VH with K13E
VL: B1 VL with V29I, Q42E, A51T, A84G, Q100A, I106L
notes: as for B1

These binders were tested against T1, recombinant human activated Factor VII … (assay: BLI (Fortebio)).
Protocol: All steps were performed in running buffer (20 mM HEPES buffer (pH 7.4), 150 mM NaCl, 5 mM CaCl2, 0.03% Tween 20, 1 mg/ml IgG-free BSA) at […] Antibodies were captured on anti-human tips (AHC, Fortebio) for 3 min at a concentration of 10 ug/ml. This was followed by a 3 min incubation to establish a baseline. Following this, association was monitored for 3 min using four different concentrations of VIIa (25 nm, 50 nM, 100 nM, and 200 nM), followed by a 3 mi dissociation. Sensorgrams were analysed using Fortebio data analysis software.

Binder	Kd [nM]
B1	1.1
B2	1.4
B3	7.9
B4	22
B5	15
B6	19
B7	68
B8	1.1
B9	1.9
B10	0.95
B11	0.92
B12	32
B13	0.87
B14	64
B15	3.1
B16	0.97
B17	4.6
B18	1.2
B19	7.7
B20	1.2

Binder	Kd [nM]
B21	5.4
B22	17
B23	0.94
B24	20
B25	7.1
B26	8.3
B27	4.7
B28	28
B29	1.4
B30	27
B31	1.2
B32	18
B33	1.3
B34	25
B35	0.99
B36	26
B37	28
B38	5.3
B39	21
B40	0.81
